# Source: US20260274976A1 (BIO THERA SOLUTIONS, published 2026)
# Experiments:
# [1] = biological target: T1, human OX40 on PG-Jurkat-hOX40-NF-κB cells (human, UniProt P43489 29-277); experiment: cell-based or functional assay
# T1 sequence (looked up): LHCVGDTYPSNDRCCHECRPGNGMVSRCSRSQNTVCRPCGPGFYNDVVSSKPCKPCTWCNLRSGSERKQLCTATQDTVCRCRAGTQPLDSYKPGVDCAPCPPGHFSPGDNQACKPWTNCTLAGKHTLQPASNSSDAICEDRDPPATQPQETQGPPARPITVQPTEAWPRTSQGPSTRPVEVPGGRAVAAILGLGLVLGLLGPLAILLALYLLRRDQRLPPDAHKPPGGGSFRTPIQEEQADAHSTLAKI
# [2] = biological target: T1, human OX40 on PG-Jurkat-hOX40-NF-κB …; experiment: flow cytometry competition against OX40L-mFc on PG-Jurkat-OX40-NF-κB cells; reference is antibody KHK4083
# Protocol: PG-Jurkat-OX40-NF-κB cells were resuspended in 1×PBS to achieve a density of 1×10⁷ cells/mL. […] PG-Jurkat-OX40-NF-κB cells were plated in sample wells, control wells, and blank wells at 50 μL/well, and the cell count was 5×10⁵ cells/well at this point. Antibody diluents at different concentrations were added to sample wells at 50 μL/well, and the mixture was mixed well. 50 μL of 1×PBS was added to control wells and blank wells. The 96-well V-bottom plate was incubated in a refrigerator at 4° C. for 5 min. […] After the incubation was complete, the 96-well V-bottom plate was taken out. The diluted ligand solution was added to sample wells and control wells at 50 μL/well as soon as possible, and the mixture was mixed well by pipetting. […] The 96-well V-bottom plate was incubated in a refrigerator at 4° C. for 50 min. The plate was washed with 1×PBS, and the supernatant was removed for further incubation.
# Anti-mFc APC (Bioss, Cat. No.: BJ01138707) was diluted with 1×PBS at a ratio of 1:800, and 100 μL of the diluted anti-mFc APC was added to each well except for blank wells to resuspend the cells. The plate was incubated in the dark in a refrigerator at 4° C. for 30 min. After the incubation, the cells were washed with 1×PBS and finally resuspended in 1×PBS at 200 μL/well for flow cytometry analysis.
binder,measurement,setting,value
"antibody M-KF (antibody, human IgG1, kappa, V domains shown, also called anti-OX40 antibody) VH: QVQLVESGGGVVQPGESLRLSCAASGFTFSSYGMHWVRQAPGKGLEWVAVIWEDGSNQYYADSVKGRFTISRDNSKNTLYLQMNSLRAEDTAVYYCAKDNQDTSPDVGIDYWGQGTLVTVSS VL: DIQMTQSPSSLSASVGDRVTITCRASQNISPFLNWYQQKPGKAPKLLIYAAVGLQSGVPSRFSGSGSGTDFTLTISSLQPEDFATYYCQQYTDYPLTFGGGTKVEIKR",fold lower IC50 than antibody KHK4083 in blocking OX40L-mFc activation of OX40 signals (NF-κB luciferase reporter),[1],4.8 times
same,fold lower IC50 than antibody KHK4083,[2],2.8 times
